Source: FireProtDB (doi:10.1073/pnas.88.5.1706)

Conditions: Enterobacteria phage fd; pH 7; 25 °C; GdnHCl; CD; MOPS 50 mM; NaCl 100 mM; reversible: yes; whole UniProt chain shown

B1: DNA-Binding protein G5P wild type, P69542 (protein)
chain: MIKVEIKPSQAQFTTRSGVSRQGKPYSLNEQLCYVDLGNEYPVLVKITLDEGQPAYAPGLYTVHLSSFKVGQFGSLMIDRLRLVPAK
denaturant m value: 3.6 kcal/mol/M
denaturant midpoint (higher = more stable): 2.61 M
unfolding free energy: 9 kcal/mol
